1 molecule from patent US20250249039A1 (published 2025) can be followed below.

For this assay, the target named is T1, PRAME peptide on HLA-A*02:01 (human).
T1 peptide: SLLQHLIGL
Briefly: multimer staining.

B1: PRAME-425-358 (TCR, V domains shown)
Valpha: QQPVQSPQAVILREGEDAVINCSSSKALYSVHWYRQKHGEAPVFLMILLKGGEQKGHDKISASFNEKKQQSSLYLTASQLSYSGTYFCGTEGTGDYKLSFGAGTTVTVRA
Vbeta: EAQVTQNPRYLITVTGKKLTVTCSQNMNHEYMSWYRQDPGLGLRQIYYSMNVEVTDKGDVPEGYKVSRKEKRNFPLILESPSPNQTSLYFCASSAGTGGHEQYFGPGTRLTVT
Turning to B1, the binding result is “recognises”.
